Measured values taken from patent US20170081400A1 (CEPHALON, published 2017).
Positions count from the first letter of the chain named.

T1: human TL1A extracellular domain with N-terminal HIS and FLAG tag (human, UniProt O95150 72-251)
T1 construct: the whole entry is named; also called TNFSF15
T1 sequence: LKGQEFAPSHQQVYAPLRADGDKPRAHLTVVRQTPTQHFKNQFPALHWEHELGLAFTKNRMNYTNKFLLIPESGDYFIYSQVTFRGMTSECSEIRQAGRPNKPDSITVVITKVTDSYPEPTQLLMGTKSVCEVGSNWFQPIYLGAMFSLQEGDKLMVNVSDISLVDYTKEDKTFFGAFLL

B1: 320-527 (antibody, human IgG1, name in Kabat numbering, V domains shown)
VH: QVQLVQSGAEVKKPGASVKVSCKASGYTFTSYDINWVRQAPGQGLEWMGWLNPNKGNTGYAQKFQGRVTMTADRSTSTAYMELSSLRSEDTAVYYCAREVPETAAFEYWGQGTLVTVSS
VL: QSVLTQPPSVSGAPGQRVTISCTSSSSDIGAGLGVHWYQQLPGTAPKLLIEGYYNRPSGVPDRFSGSKSGTSASLTITGLLPEDEGDYYCQSYDGTLSALFGGGTKLTVLG
notes: full-length human IgG1, lambda
B2: 320-549 (antibody, human IgG1, name in Kabat numbering, V domains shown)
VH: B1 VH with K55S, T58S
VL: B1 VL
notes: as for B1
B3: 320-552 (antibody, human IgG1, name in Kabat numbering, V domains shown)
VH: B1 VH with K55S, T58H
VL: B1 VL
notes: as for B1
B4: 320-565 (antibody, human IgG1, name in Kabat numbering, V domains shown)
VH: B1 VH with K55S, G59Y
VL: B1 VL
notes: as for B1
B5: 320-532 (antibody, human IgG1, name in Kabat numbering, V domains shown)
VH: B1 VH with K55S, G56S
VL: B1 VL
notes: as for B1
B6: 320-550 (antibody, human IgG1, name in Kabat numbering, V domains shown)
VH: B1 VH with K55S, T58Q
VL: B1 VL
notes: as for B1
B7: 320-544 (antibody, human IgG1, name in Kabat numbering, V domains shown)
VH: B1 VH with K55S, N57K
VL: B1 VL
notes: as for B1
B8: 320-546 (antibody, human IgG1, name in Kabat numbering, V domains shown)
VH: B1 VH with K55S, N57W
VL: B1 VL
notes: as for B1
B9: 320-555 (antibody, human IgG1, name in Kabat numbering, V domains shown)
VH: B1 VH with K55S, T58W
VL: B1 VL
notes: as for B1
B10: 320-531 (antibody, human IgG1, name in Kabat numbering, V domains shown)
VH: B1 VH with K55S, G56A
VL: B1 VL
notes: as for B1
B11: 320-539 (antibody, human IgG1, name in Kabat numbering, V domains shown)
VH: B1 VH with K55S, N57A
VL: B1 VL
notes: as for B1
B12: 320-533 (antibody, human IgG1, name in Kabat numbering, V domains shown)
VH: B1 VH with K55S, G56Q
VL: B1 VL
notes: as for B1
B13: 320-551 (antibody, human IgG1, name in Kabat numbering, V domains shown)
VH: B1 VH with K55S, T58D
VL: B1 VL
notes: as for B1
B14: 320-553 (antibody, human IgG1, name in Kabat numbering, V domains shown)
VH: B1 VH with K55S, T58K
VL: B1 VL
notes: as for B1
B15: 320-559 (antibody, human IgG1, name in Kabat numbering, V domains shown)
VH: B1 VH with K55S, G59Q
VL: B1 VL
notes: as for B1
B16: 320-538 (antibody, human IgG1, name in Kabat numbering, V domains shown)
VH: B1 VH with K55S, G56W
VL: B1 VL
notes: as for B1
B17: 320-535 (antibody, human IgG1, name in Kabat numbering, V domains shown)
VH: B1 VH with K55S, G56H
VL: B1 VL
notes: as for B1
B18: 320-536 (antibody, human IgG1, name in Kabat numbering, V domains shown)
VH: B1 VH with K55S, G56K
VL: B1 VL
notes: as for B1
B19: 320-542 (antibody, human IgG1, name in Kabat numbering, V domains shown)
VH: B1 VH with K55S, N57D
VL: B1 VL
notes: as for B1
B20: 320-529 (antibody, human IgG1, name in Kabat numbering, V domains shown)
VH: B1 VH with K55W
VL: B1 VL
notes: as for B1
B21: 320-528 (antibody, human IgG1, name in Kabat numbering, V domains shown)
VH: B1 VH with K55L
VL: B1 VL
notes: as for B1
B22: 320-556 (antibody, human IgG1, name in Kabat numbering, V domains shown)
VH: B1 VH with K55S, T58Y
VL: B1 VL
notes: as for B1
B23: 320-557 (antibody, human IgG1, name in Kabat numbering, V domains shown)
VH: B1 VH with K55S, G59A
VL: B1 VL
notes: as for B1
B24: 320-540 (antibody, human IgG1, name in Kabat numbering, V domains shown)
VH: B1 VH with K55S, N57S
VL: B1 VL
notes: as for B1
B25: 320-541 (antibody, human IgG1, name in Kabat numbering, V domains shown)
VH: B1 VH with K55S, N57Q
VL: B1 VL
notes: as for B1
B26: 320-545 (antibody, human IgG1, name in Kabat numbering, V domains shown)
VH: B1 VH with K55S, N57L
VL: B1 VL
notes: as for B1
B27: 320-543 (antibody, human IgG1, name in Kabat numbering, V domains shown)
VH: B1 VH with K55S, N57H
VL: B1 VL
notes: as for B1
B28: 320-560 (antibody, human IgG1, name in Kabat numbering, V domains shown)
VH: B1 VH with K55S, G59D
VL: B1 VL
notes: as for B1
B29: 320-548 (antibody, human IgG1, name in Kabat numbering, V domains shown)
VH: B1 VH with K55S, T58A
VL: B1 VL
notes: as for B1
B30: 320-537 (antibody, human IgG1, name in Kabat numbering, V domains shown)
VH: B1 VH with K55S, G56L
VL: B1 VL
notes: as for B1
B31: 320-530 (antibody, human IgG1, name in Kabat numbering, V domains shown)
VH: B1 VH with K55Y
VL: B1 VL
notes: as for B1
B32: 320-534 (antibody, human IgG1, name in Kabat numbering, V domains shown)
VH: B1 VH with K55S, G56D
VL: B1 VL
notes: as for B1
B33: 320-554 (antibody, human IgG1, name in Kabat numbering, V domains shown)
VH: B1 VH with K55S, T58L
VL: B1 VL
notes: as for B1
B34: 320-561 (antibody, human IgG1, name in Kabat numbering, V domains shown)
VH: B1 VH with K55S, G59H
VL: B1 VL
notes: as for B1
B35: 320-564 (antibody, human IgG1, name in Kabat numbering, V domains shown)
VH: B1 VH with K55S, G59W
VL: B1 VL
notes: as for B1

Assays:
[1] = target: T1, human TL1A extracellular domain with …; assay: SPR Run 7, antibody on Protein A, TL1A 5 ug/mL, timepoint 220
Text: (§1) 1.5. Antibody expression and antigen binding as determined by SPR. Using a CM5 sensor chip (GE Healthcare) Protein A (Pierce) was coupled to the chip surface using an amine coupling kit (GE Healthcare). Protein A was coupled on flow cell 1 and 2 (or alternatively 3 and 4) using a BIACORE® T200. […] The amount of supernatant or purified protein (as well as the concentration) injected during the capture stage varied between runs and is specified in the header of the Tables 3-11. At the end of injection of the supernatant or purified antibody the change in response units was measured. This value was reported as Capture Level in Tables 3-11. […] The response units were measured prior to the end of the dissociation phase. […] The sensorgrams were double referenced (flow cell 2 is subtracted from flow cell 1 and a buffer blank). As there were a large number of antibody variants to screen, these were screened across different runs (Tables 3-11). […] A summary of the conditions used in each run is below:
(§2) 2.1. […] In some experiment the antibodies were purified using Protein A chromatography (See 1.4) and purified antibodies were used in BIACORE® (GE Healthcare) experiments.

[2] = target: T1, human TL1A extracellular domain with …; assay: SPR Run 7, antibody on Protein A, TL1A 5 ug/mL, timepoint 44
Text: as §1, §2

Row | Binder | TL1A Binding Level (Late) [1] | TL1A Binding Level (Early) [2]
1 | B1 | 136 RU | 146 RU
2 | B2 | 45 RU | 50 RU
3 | B3 | 97 RU | 104 RU
4 | B4 | 12 RU | 43 RU
5 | B5 | 7 RU | 10 RU
6 | B6 | 103 RU | 112 RU
7 | B7 | 112 RU | 120 RU
8 | B8 | 61 RU | 67 RU
9 | B9 | 30 RU | 62 RU
10 | B10 | 61 RU | 66 RU
11 | B11 | 159 RU | 172 RU
12 | B12 | 86 RU | 93 RU
13 | B13 | 36 RU | 44 RU
14 | B14 | 78 RU | 84 RU
15 | B15 | 5 RU | 9 RU
16 | B16 | 49 RU | 54 RU
17 | B17 | 115 RU | 126 RU
18 | B18 | 105 RU | 115 RU

Row | Binder | TL1A Binding Level (Late) [1] | TL1A Binding Level (Early) [2]
19 | B19 | 86 RU | 97 RU
20 | B20 | 83 RU | 94 RU
21 | B21 | 108 RU | 121 RU
22 | B22 | 90 RU | 100 RU
23 | B23 | 6 RU | 26 RU
24 | B24 | 92 RU | 100 RU
25 | B25 | 84 RU | 94 RU
26 | B26 | 100 RU | 109 RU
27 | B27 | 126 RU | 138 RU
28 | B28 | 9 RU | 36 RU
29 | B29 | 68 RU | 74 RU
30 | B30 | 123 RU | 133 RU
31 | B31 | 67 RU | 77 RU
32 | B32 | 102 RU | 109 RU
33 | B33 | 51 RU | 66 RU
34 | B34 | 6 RU | 14 RU
35 | B35 | 67 RU | 72 RU
